B1: DART-A-M23 (bispecific antibody)
chain 1: DFVMTQSPDSLAVSLGERVTMSCKSSQSLLNSGNQKNYLTWYQQKPGQPPKLLIYWASTRESGVPDRFSGSGSGTDFTLTISSLQAEDVAVYYCQNDYSYPYTFGQGTKLEIKGGGSGGGGEVQLVESGGGLVQPGGSLRLSCAASGFTFSTYAMNWVRQAPGKGLEWVGRIRSKYNNYATYYADSVKDRFTISRDDSKNSLYLQMNSLKTEDTAVYYCVRHGNFGNSYVSWFAYWGQGTLVTVSSGGCGGGKVAALKEKVAALKEKVAALKEKVAALKE
chain 2: QAVVTQEPSLTVSPGGTVTLTCRSSTGAVTTSNYANWVQQKPGQAPRGLIGGTNKRAPWTPARFSGSLLGGKAALTITGAQAEDEADYYCAEWYSNLWVFGGGTKLTVLGGGGSGGGGEVQLVQSGAELKKPGASVKVSCKASGYTFTDYYMKWVRQAPGQGLEWIGDIIPSNGATFYNQKFKGRVTITVDKSTSTAYMELSSLRSEDTAVYYCARSHLLRASWFAYWGQGTLVTVSSGGCGGGEVAALEKEVAALEKEVAALEKEVAALEK
notes: also called CD123 x CD3 DART-A-type diabody with CD3 mAb 1 M23
B2: DART-A-WT (bispecific antibody)
chain 1: DFVMTQSPDSLAVSLGERVTMSCKSSQSLLNSGNQKNYLTWYQQKPGQPPKLLIYWASTRESGVPDRFSGSGSGTDFTLTISSLQAEDVAVYYCQNDYSYPYTFGQGTKLEIKGGGSGGGGEVQLVESGGGLVQPGGSLRLSCAASGFTFSTYAMNWVRQAPGKGLEWVGRIRSKYNNYATYYADSVKDRFTISRDDSKNSLYLQMNSLKTEDTAVYYCVRHGNFGNSYVSWFAYWGQGTLVTVSSGGCGGGKVAALKEKVAALKEKVAALKEKVAALKE
chain 2: QAVVTQEPSLTVSPGGTVTLTCRSSTGAVTTSNYANWVQQKPGQAPRGLIGGTNKRAPWTPARFSGSLLGGKAALTITGAQAEDEADYYCALWYSNLWVFGGGTKLTVLGGGGSGGGGEVQLVQSGAELKKPGASVKVSCKASGYTFTDYYMKWVRQAPGQGLEWIGDIIPSNGATFYNQKFKGRVTITVDKSTSTAYMELSSLRSEDTAVYYCARSHLLRASWFAYWGQGTLVTVSSGGCGGGEVAALEKEVAALEKEVAALEKEVAALEK
notes: Two-chain diabody without Fc; Kabat position 65 of the CD3 VH is D; also called CD3 Mab-1; Wild-Type
B3: DART-A-M25 (bispecific antibody)
chain 1: DFVMTQSPDSLAVSLGERVTMSCKSSQSLLNSGNQKNYLTWYQQKPGQPPKLLIYWASTRESGVPDRFSGSGSGTDFTLTISSLQAEDVAVYYCQNDYSYPYTFGQGTKLEIKGGGSGGGGEVQLVESGGGLVQPGGSLRLSCAASGFTFSTYAMNWVRQAPGKGLEWVGRIRSKYNNYATYYADSVKDRFTISRDDSKNSLYLQMNSLKTEDTAVYYCVRHGNFGNSYVSWFAYWGQGTLVTVSSGGCGGGKVAALKEKVAALKEKVAALKEKVAALKE
chain 2: QAVVTQEPSLTVSPGGTVTLTCRSSTGAVTTSNYANWVQQKPGQAPRGLIGDTNKRAPWTPARFSGSLLGGKAALTITGAQAEDEADYYCALWYSNLWVFGGGTKLTVLGGGGSGGGGEVQLVQSGAELKKPGASVKVSCKASGYTFTDYYMKWVRQAPGQGLEWIGDIIPSNGATFYNQKFKGRVTITVDKSTSTAYMELSSLRSEDTAVYYCARSHLLRASWFAYWGQGTLVTVSSGGCGGGEVAALEKEVAALEKEVAALEKEVAALEK
notes: also called CD123 x CD3 DART-A-type diabody with CD3 mAb 1 M25
B4: DART-A-M24 (bispecific antibody)
chain 1: DFVMTQSPDSLAVSLGERVTMSCKSSQSLLNSGNQKNYLTWYQQKPGQPPKLLIYWASTRESGVPDRFSGSGSGTDFTLTISSLQAEDVAVYYCQNDYSYPYTFGQGTKLEIKGGGSGGGGEVQLVESGGGLVQPGGSLRLSCAASGFTFSTYAMNWVRQAPGKGLEWVGRIRSKYNNYATYYADSVKDRFTISRDDSKNSLYLQMNSLKTEDTAVYYCVRHGNFGNSYVSWFAYWGQGTLVTVSSGGCGGGKVAALKEKVAALKEKVAALKEKVAALKE
chain 2: QAVVTQEPSLTVSPGGTVTLTCRSSTGAVTTSNYANWVQQKPGQAPRGLIGGTNKRAPWTPARFSGSLLGGKAALTITGAQAEDEADYYCAQWYSNLWVFGGGTKLTVLGGGGSGGGGEVQLVQSGAELKKPGASVKVSCKASGYTFTDYYMKWVRQAPGQGLEWIGDIIPSNGATFYNQKFKGRVTITVDKSTSTAYMELSSLRSEDTAVYYCARSHLLRASWFAYWGQGTLVTVSSGGCGGGEVAALEKEVAALEKEVAALEKEVAALEK
notes: also called CD123 x CD3 DART-A-type diabody with CD3 mAb 1 M24
B5: DART-A-M26 (bispecific antibody)
chain 1: DFVMTQSPDSLAVSLGERVTMSCKSSQSLLNSGNQKNYLTWYQQKPGQPPKLLIYWASTRESGVPDRFSGSGSGTDFTLTISSLQAEDVAVYYCQNDYSYPYTFGQGTKLEIKGGGSGGGGEVQLVESGGGLVQPGGSLRLSCAASGFTFSTYAMNWVRQAPGKGLEWVGRIRSKYNNYATYYADSVKDRFTISRDDSKNSLYLQMNSLKTEDTAVYYCVRHGNFGNSYVSWFAYWGQGTLVTVSSGGCGGGKVAALKEKVAALKEKVAALKEKVAALKE
chain 2: QAVVTQEPSLTVSPGGTVTLTCRSSTGAVTTSNYANWVQQKPGQAPRGLIGGTNGRAPWTPARFSGSLLGGKAALTITGAQAEDEADYYCALWYSNLWVFGGGTKLTVLGGGGSGGGGEVQLVQSGAELKKPGASVKVSCKASGYTFTDYYMKWVRQAPGQGLEWIGDIIPSNGATFYNQKFKGRVTITVDKSTSTAYMELSSLRSEDTAVYYCARSHLLRASWFAYWGQGTLVTVSSGGCGGGEVAALEKEVAALEKEVAALEKEVAALEK
notes: also called CD123 x CD3 DART-A-type diabody with CD3 mAb 1 M26

What was measured:
[1] = biological target: T1, CD3 (as used for the BIACORE kinetics of Table 11) (UniProt P07766 23-126); assay: SPR (BIACORE)
T1 construct: CD3 mAb 1 is described as an anti-human CD3 antibody
Method: Variants of the CD123×CD3 DART-A-type diabody (designated DART-A-WT; amino acid sequences provided above) were generated comprising the VH and VL Domains of the identified scFvs. Thus, a panel of DART-A-type diabodies, designated DART-A-M1-DART-A-M26, comprising vCD3-Binding Domains (such vCD3-Binding Domains being respectively designated “CD3 mAb 1 M1-CD3 mAb 1 M26”) were generated. The CD3-binding kinetics of DART-A-M1-DART-A-M26 were measured by BIACORE® and compared to DART-A-WT. Table 11 summarizes the CD3-binding kinetics of DART-A-WT and the DART-A-type diabodies comprising the vCD3-Binding Domains of CD3 mAb 1 M1-CD3 mAb 1 M26, ranked by kₐ (R denotes kₐ, kd, or kD ratio of variant DART-A-type diabody (comprising a vCD3-Binding Domain) to DART-A-WT (comprising the rCD3-Binding Domain of CD3 mAb 1)).

CD3 on T-cells = CD3 on T-cells (UniProt P07766 23-207); assay: cell-based or functional assay
Chain of CD3 on T-cells (P07766 23-207): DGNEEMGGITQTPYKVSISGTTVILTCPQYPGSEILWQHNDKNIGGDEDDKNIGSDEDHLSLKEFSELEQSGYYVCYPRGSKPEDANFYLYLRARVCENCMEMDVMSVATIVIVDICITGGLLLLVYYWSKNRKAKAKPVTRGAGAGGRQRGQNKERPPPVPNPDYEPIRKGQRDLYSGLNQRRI

T1 sequence (P07766 23-126): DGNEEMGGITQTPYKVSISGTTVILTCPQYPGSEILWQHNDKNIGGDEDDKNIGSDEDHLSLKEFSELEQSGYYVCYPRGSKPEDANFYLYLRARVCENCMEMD

Row | Binder | Kd [1] | R (KD ratio to DART-A-WT) [1] | R (ka ratio to DART-A-WT) [1] | R (kd ratio to DART-A-WT) [1] | koff [1] | kon [1] | EC50 of cytolysis at 18 hours (CTL assay, Pan-T-cells and MOLM-13, E:T = 5:1) (CD3 on T-cells) | EC50 of cytolysis at 42 hours (CTL assay, Pan-T-cells and MOLM-13, E:T = 5:1) (CD3 on T-cells) | R: ratio of 18 hour EC50 to DART-A-WT (CTL assay, Pan-T-cells and MOLM-13, E:T = 5:1) (CD3 on T-cells) | R: ratio of 42 hour EC50 to DART-A-WT (CTL assay, Pan-T-cells and MOLM-13, E:T = 5:1) (CD3 on T-cells) | max % CytoTox at 18 hours (CTL assay, Pan-T-cells and MOLM-13, E:T = 5:1) (CD3 on T-cells) | max % CytoTox at 42 hours (CTL assay, Pan-T-cells and MOLM-13, E:T = 5:1) (CD3 on T-cells)
1 | B1 | 26.9 nM | 3.3 | 0.9 | 3 | 0.0124 s⁻¹ | 459000 M⁻¹ s⁻¹ | 0.421 ng/mL | 0.061 ng/mL | 5.3 ratio | 21.6 ratio | 49.3% | 31.4%
2 | B2 | 8.17 nM | 1 | 1 | 1 | 0.00409 s⁻¹ | 500000 M⁻¹ s⁻¹ | 0.079 ng/mL | 0.003 ng/mL | 1 ratio | 1 ratio | 39% | 29.1%
3 | B3 | 125 nM | 15 | 0.3 | 4.7 | 0.0192 s⁻¹ | 154000 M⁻¹ s⁻¹ | 0.585 ng/mL | 0.1 ng/mL | 7.4 ratio | 35.7 ratio | 46.6% | 30.4%
4 | B4 | 14.5 nM | 1.8 | 1.2 | 2.1 | 0.00861 s⁻¹ | 594000 M⁻¹ s⁻¹ | 0.34 ng/mL | 0.031 ng/mL | 4.3 ratio | 11.1 ratio | 49.4% | 31.1%
5 | B5 | 54.4 nM | 6.7 | 0.6 | 4.3 | 0.0174 s⁻¹ | 319000 M⁻¹ s⁻¹ | 0.444 ng/mL | 0.078 ng/mL | 5.6 ratio | 27.9 ratio | 44.2% | 28.2%

From patent US20240043537A1 (MacroGenics, published 2024)
